From US20210253733A1 (ONCORESPONSE, published 2021)

Legend:
[1] = molecular target: T1, human CD163 expressed on human myeloid cells (M2c macrophages, M2 macrophages, in vitro MDSCs) (human, UniProt Q86VB7 42-1114); assay: flow cytometry, AF647-conjugated AB102 on polarized M2c macrophages without siRNA
T1 construct: Endogenous CD163 on primary human monocyte-derived cells; also called huCD163; CD163^Hi cells
Protocol: The macrophage detachment solution was replaced with cold PBS−/− (PBS without calcium and magnesium; Hyclone No. SH30028.02) containing 0.2 mM EDTA and 0.1% HSA. The cells were spun down at 650×g for 5 min and then resuspended in 0.5 mL cold Block solution (FACS buffer+10% NGS+10 μg of human IgG Fc fragment protein (Abcam No. ab90285)) per million cells. The cells were counted and an average of 1×10⁶ per mL was used for further calculations. The cells were incubated at RT for 15 min (to increase FcR binding), followed by a 30 min incubation on ice for full blocking. An aliquot of unstained cells was set aside for compensation controls. e780 viability dye (ThermoFisher eBioscience No. 65-0865-18) was added to the remainder at a final dilution of 1:1000. Cells were aliquoted into 96-well plates (40 μL per well), and 10 μL of antibody solution was added to each well. Antibodies were prepared with a starting concentration of 100 μg/mL in FACS buffer and serially diluted in FACS buffer. After addition of antibodies, each set of cells was tested with an antibody panel (AB101 in FcNull framework conjugated to AF647 and commercial anti-CD163 conjugated to BV421 [BioLegend No. 333612]) and an isotype panel (ISO2 in FcNull framework conjugated to AF647 and commercial mIgG1 conjugated to BV421). […] Cells were then analyzed by flow cytometry on a BD Canto II machine.

[2] = molecular target: T2, His-tagged recombinant human CD163 (R&D Systems, No. 1607-CD-050) (human, UniProt Q86VB7 46-1050); assay: ELISA, plate coated with 5 ug/mL His-tagged recombinant human CD163, HRP anti-human IgG F(ab')2, A450
T2 construct: Bought protein; also called huCD163; not shown: His tag
T2 sequence (Q86VB7 46-1050 limits assumed): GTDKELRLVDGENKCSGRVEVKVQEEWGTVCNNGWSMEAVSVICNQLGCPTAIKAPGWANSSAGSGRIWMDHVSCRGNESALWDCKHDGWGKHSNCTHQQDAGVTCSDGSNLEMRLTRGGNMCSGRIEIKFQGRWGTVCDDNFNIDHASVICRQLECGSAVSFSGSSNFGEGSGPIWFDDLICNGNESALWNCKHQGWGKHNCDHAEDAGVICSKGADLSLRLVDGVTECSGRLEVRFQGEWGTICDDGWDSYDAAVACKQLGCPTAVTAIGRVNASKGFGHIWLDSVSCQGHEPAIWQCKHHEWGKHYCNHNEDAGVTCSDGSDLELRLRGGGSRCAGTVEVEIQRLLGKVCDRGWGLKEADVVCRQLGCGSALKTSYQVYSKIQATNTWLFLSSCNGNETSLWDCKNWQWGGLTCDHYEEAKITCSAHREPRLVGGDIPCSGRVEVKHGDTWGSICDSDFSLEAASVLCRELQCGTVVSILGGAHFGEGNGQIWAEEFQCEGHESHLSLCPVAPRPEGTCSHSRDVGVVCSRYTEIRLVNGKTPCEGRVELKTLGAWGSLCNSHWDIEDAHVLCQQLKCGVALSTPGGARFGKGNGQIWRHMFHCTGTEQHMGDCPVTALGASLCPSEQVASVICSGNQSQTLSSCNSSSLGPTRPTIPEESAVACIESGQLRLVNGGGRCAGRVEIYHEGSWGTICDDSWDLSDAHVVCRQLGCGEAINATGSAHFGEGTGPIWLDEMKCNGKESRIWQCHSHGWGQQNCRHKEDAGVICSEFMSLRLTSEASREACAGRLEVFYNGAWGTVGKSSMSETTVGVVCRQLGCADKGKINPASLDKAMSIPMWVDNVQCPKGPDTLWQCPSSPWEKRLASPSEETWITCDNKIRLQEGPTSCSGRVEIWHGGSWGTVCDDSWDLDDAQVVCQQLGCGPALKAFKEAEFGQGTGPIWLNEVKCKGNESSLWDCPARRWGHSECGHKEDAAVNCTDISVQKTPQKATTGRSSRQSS
Protocol: AB101 binding to His-tagged recombinant human CD163 (R&D Systems, No. 1607-CD-050) and recombinant murine CD163 (R&D Systems, No. 7435-CD-050) proteins was determined using ELISA. Recombinant proteins were diluted in PBS to 5 μg/mL and added to 384-well High binding ELISA plates (Greiner Bio-One, No. 781061) at 25 μL per well and incubated at 4° C. overnight. The plates were washed three times with PBS, using the BioTek ELx405 Select microplate washer (wash program ELISA_384_PBS_3×_wash) and then blocked with 90 μL/well of blocking buffer (2% nonfat, dry milk/PBS+0.05% Tween 20) for 1 hr at RT.
After blocking, 25 μL per well of primary antibodies were added to the plates and incubated for 1 hr at room temp. The test antibody was AB101; the control anti-huCD163 antibody was a commercially available antibody in murine IgG1 framework (R&D Systems, #MAB1607); the isotype controls were a proprietary mAb, in human IgG1, human FcNull, and murine IgG1 frameworks, with known specificity. After primary antibody binding, plates were washed three times with PBS using the EL405× (wash program ELISA_384_PBS_3×_wash). […] After development, the reaction was stopped by adding 25 μL per well of 0.3 M HCl and plates were read using the SpectraMax M5e instrument at 450 nm.

T1 sequence (Q86VB7 other isoform, or with tags, fused parts or gaps limits assumed): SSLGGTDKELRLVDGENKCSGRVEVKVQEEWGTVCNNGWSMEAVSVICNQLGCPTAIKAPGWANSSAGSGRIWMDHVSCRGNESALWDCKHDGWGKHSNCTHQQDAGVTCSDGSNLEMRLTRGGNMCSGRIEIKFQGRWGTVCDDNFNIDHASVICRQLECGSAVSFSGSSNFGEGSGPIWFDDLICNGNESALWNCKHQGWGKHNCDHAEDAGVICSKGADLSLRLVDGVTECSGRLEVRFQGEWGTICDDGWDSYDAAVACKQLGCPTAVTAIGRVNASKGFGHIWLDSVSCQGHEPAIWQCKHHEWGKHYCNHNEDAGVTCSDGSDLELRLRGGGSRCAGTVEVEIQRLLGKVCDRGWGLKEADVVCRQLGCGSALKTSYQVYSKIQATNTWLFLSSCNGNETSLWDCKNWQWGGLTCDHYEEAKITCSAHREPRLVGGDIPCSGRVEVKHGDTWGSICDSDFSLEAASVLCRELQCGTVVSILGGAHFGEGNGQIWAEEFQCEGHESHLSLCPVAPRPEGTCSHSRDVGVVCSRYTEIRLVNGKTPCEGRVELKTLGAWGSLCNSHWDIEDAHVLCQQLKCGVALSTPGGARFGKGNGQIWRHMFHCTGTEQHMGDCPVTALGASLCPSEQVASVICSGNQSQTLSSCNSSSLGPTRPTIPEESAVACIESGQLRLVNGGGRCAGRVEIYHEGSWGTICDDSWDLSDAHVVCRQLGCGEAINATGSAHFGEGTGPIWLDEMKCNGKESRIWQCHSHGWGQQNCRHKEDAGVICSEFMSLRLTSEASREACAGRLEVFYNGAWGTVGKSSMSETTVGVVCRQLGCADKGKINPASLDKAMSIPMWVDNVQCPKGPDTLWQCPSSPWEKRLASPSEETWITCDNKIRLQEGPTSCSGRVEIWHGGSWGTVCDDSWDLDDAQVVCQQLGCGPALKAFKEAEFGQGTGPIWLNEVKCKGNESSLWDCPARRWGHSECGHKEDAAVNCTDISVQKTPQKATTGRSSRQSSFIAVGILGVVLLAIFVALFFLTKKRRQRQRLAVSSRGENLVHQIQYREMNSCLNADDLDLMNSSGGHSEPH

B1: AB102 (antibody, human IgG1, kappa)
light: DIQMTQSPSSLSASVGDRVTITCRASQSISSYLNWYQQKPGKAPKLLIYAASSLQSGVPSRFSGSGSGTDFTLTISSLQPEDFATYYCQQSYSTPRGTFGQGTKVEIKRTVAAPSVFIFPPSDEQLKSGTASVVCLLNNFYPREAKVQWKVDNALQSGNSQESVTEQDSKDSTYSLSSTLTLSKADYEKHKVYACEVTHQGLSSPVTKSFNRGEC
heavy: EVQLVESGGGVVQPGRSLRLSCAASGFTFSSYAMHWVRQAPGKGLEWVAVISYDGSNKYYADSVKGRFTISRDNSKNTLYLQMNSLRAEDTAVYYCARENVRPYYDFWSGYYSEYYYYGMDVWGQGTTVTVSSASTKGPSVFPLAPSSKSTSGGTAALGCLVKDYFPEPVTVSWNSGALTSGVHTFPAVLQSSGLYSLSSVVTVPSSSLGTQTYICNVNHKPSNTKVDKRVEPKSCDKTHTCPPCPAPEFEGGPSVFLFPPKPKDTLMISRTPEVTCVVVDVSHEDPEVKFNWYVDGVEVHNAKTKPREEQYNSTYRVVSVLTVLHQDWLNGKEYKCKVSNKALPASIEKTISKAKGQPREPQVYTLPPSREEMTKNQVSLTCLVKGFYPSDIAVEWESNGQPENNYKTTPPVLDSDGSFFLYSKLTVDKSRWQQGNVFSCSVMHEALHNHYTQKSLSLSPGK
notes: Biotinylated for the PFA immunoprecipitation and AF647 conjugated for flow cytometry; also called AB101 FcNull antibody; AB101 in FcNull framework; copies: 2 + 2
EC50 (read off the curve) [1]: ~10 nM | EC50 (read off the curve) [2]: ~1 nM
